Assay results from US20230416343A1 (SORRENTO THERAPEUTICS, published 2023).
Several values for one entry are separate records, joined by “and”; a condition that tells them apart may be missing. Equal values may be shown once. Read-outs that look alike come from different tables or passages of the source.

Key:
[1] = molecular target: SARS-CoV-2 variant spike protein F490S on HEK293 cells (SARS-CoV-2, UniProt P0DTC2 14-1273)
[2] = molecular target: SARS-CoV-2 variant spike protein triple mutant K417N, E484K, and N501Y on HEK293 cells (SARS-CoV-2, UniProt P0DTC2 14-1273)
[3] = molecular target: SARS-CoV-2 variant spike protein E484K on HEK293 cells (SARS-CoV-2, UniProt P0DTC2 14-1273)
[4] = molecular target: T1, SARS-CoV-2 D614G mutant spike protein expressed on HEK293 cells (SARS-CoV-2, UniProt P0DTC2 14-1273)
[5] = molecular target: SARS-CoV-2 variant spike protein S494P on HEK293 cells (SARS-CoV-2, UniProt P0DTC2 14-1273)
[6] = molecular target: S protein of live SARS-CoV-2 strain 2020001 (spike protein having the D614G mutation) (SARS-CoV-2, UniProt P0DTC2 14-1273); assay: cell-based or functional assay
[7] = molecular target: S protein of live SARS-CoV-2 Alpha variant virus (SARS-CoV-2, UniProt P0DTC2 14-1273); assay: cell-based or functional assay
[8] = molecular target: SARS-CoV-2 spike protein expressed on HEK293 cells (SARS-CoV-2, UniProt P0DTC2 14-1273)
[9] = molecular target: T1, SARS-CoV-2 D614G mutant spike protein …; remark: listed apart in the source

B1: S1D7270LALA antibody (STI-2020) (antibody, V domains shown)
VH: EVQLVESGGGLIQPGGSLRLSCAASGFTVSSNYMSWVRQAPGKGLEWVSIIYPGGSTEYADSVKGRFTISRDNSRNTLYLQMNSLRAEDTAVYYCARELGYYGMDVWGQGTTVTVSS
VL: DIQMTQSPSSVSASVGDRVTITCRASQGISTWLVWYQQKPGKAPNLLIYGASSLQSGVPSRFSGSGSGTDFTLTISSLQPEDFATYYCQQANAYPYTFGQGTKLEIK
Work on B1 yielded an EC50 [1] of 48 µg/mL, an EC50 [2] greater than 10000 µg/mL and an EC50 [3] of 140 µg/mL. For the same binder, the EC50 [4] was 130 µg/mL, the EC50 [5] was 131 µg/mL and the “IC50, inhibition of cytopathic effect (CPE) on Vero E6 cells, live virus” value [6] was 0.055 µg/mL. The “IC50, plaque reduction neutralization test on Vero E6 cells, live virus” value [7] was 0.00908 µg/mL and 0.0164 µg/mL, the EC50 [8] was 0.12 µg/mL and the EC50 [9] was 0.13 µg/mL.
